Measured values published in a protein production outcome set (Wang et al. 2014).

Experiment: label from the status in PepcDB records
For “MDCRKMARFSYSVIWIMAISKVFELGLVAGLGHQEFARPSRGYLAFRDDSIWPQEEPAIRPRSSQRVPPMGIQHSKELNRTCCLNGGTCMLGSFCACPPSFYGRNCEHDVRKENCGSVPHDTWLPKKCSLCKCWHGQLRCFPQAFLPGCDGLVMDEHLVASRTPELPPSARTTTFMLVGICLSIQSYY”, the protein production was “failed”. For “MDDAERERGPWHRNLIVLWFCTFVAGMAFSEIMPFLSLFVSQLGDFTKAQITFYSGLAFAADYAISAISAPLWGIIADKKGRKIMLLRASLGMAVAMGLMGFVTNVWQLVALRALQGVFAGFISNAQALVASQTPRKYSGRALSTLITGAVSGQLFGPVIGGLLAQLFSIRNTFFITAGLLMVAFLLSLFFVQEHFKPVAHHREPGDSRNPLAAFQNPRLIIVMLCSTAIVQFGNASIAPIISLYVRELMHYRGPITVVAGIIAALPGISNIFSAPRLGRYGDQHGSGKVLLFGYIFAVIMYFPQGIVTSVVALGILRFAIGISDGALYPEIQTVLTKNTPVHLTSTIFSYNQSFQAIGNMFGALLGGLVAGWFNYNAVFIMTALLLLINLGLILWLVPDIWKNGKRAVS”, the protein production was “failed”. In the case of “MDDETLRLQFGHLIRILPTLLEFEKKGYEPSLAEIVKASGVSEKTFFMGLKDRLIRAGLVKEETLSYRVKTLKLTEKGRRLAECLEKCRDVLGS”, the protein production is reported as “not failed”. In the case of “MDDSKSSYKLGLFVVSALVSLFVVLFILGGRSLFEPKIIVETYFDESVSGLEVGAPVRFRGITAGEVVSIELSDALYEAAVPRENRKSYVVVRSEITGAKRTIEEWNRSIEISIERGLRATTQLAGITGQQYLSFDYTSMDEGLSFNWKPNYPYVPSTKSSAGKIVSGIQSLIARLDEADINTLVANINMLIETLNQSISALDADALNAQLLALLINSNQMVKSVDGVISDPEVKEIVSSLAQISKSLNSSLKDKGDINKLIKHLDRAAVRLDVIMADNQSDINYVIKDLRVTVENLKSFSETLKNQPSSIIFSSEPEKLKIN”, the protein production is reported as “failed”. In the case of “MDDVQVERILQNPKFKKMVSKKATLSWTLTIIMLIVYVGFMLLVGYNKEFLMSSFSGGVTTWGIPLGLGIIVLSFVLCGVYSYIANNTLDQLNEEALREVENITHEKGLH”, the protein production is reported as “failed”. With “MDECTVTRHYEGKGRNAGRLGAVGCKNRHGEFRIGSGFKDKDRDNPPKIGTLITYRYRGFTRKGTPKFATFVRVRTDLEHHHHHH” the protein production was “not failed”. For “MDEKNIVALLGQPNVGKTTLFNHLTGMKQRIGNWPGVTVEKKEGFFKKNNENYVVVDLPGIYSLMSDSIDQKIARDYIVENSKITVIDVIDTPNINRNLYLTIQLLELGISPILCLNLIDEAEKFGIYVNDQKLSEKLGVPVIRTSGRHKIGIDNLKNALYEFKPTEPVKITYSSLLEETIEKIIDKLENSQYKLDEIYARLPKRWIAISLLEKDPDVVNKFSKYPEFIKFVKDLKIEIENEIKHDVESYVVEQRYKKCDEILAGVMVNSELYEDIDTIVIHPVYGSLIFGVVLYTMYNFVFGLGDIFSGFIGSFFEILGNYLMNILPESFSGVIIDGLLAGVGGVLEFFPIVFLIMFSLSTLEDTGYLSRVTALTHSVMSTMGLSGKSFIPMITGFGCSVPALMGTRFISSHKERLITLLVTPLVPCSARFVIIGFFASFFFIEHAALFTLSILAITFAMLFIVSYVLSKFIKGEAEEYIFELPPYRIPDWDNIIKMTWAKSKEFLKKAGTVIAAGSILFYGFVNYPSPDANYAAVVGKIIEHVTQYMGLDWRAAISLIFGIFAKELVVSSFSILYPENISTAFSPLKAFVLTLVSVLYIPCLATLATLYLETRSLKWTAFGIGYNLVLATLVGIITYNIGTMLGF”, the protein production was “failed”.
